{
  "source": "the domain aggregation screens of Martell et al. (2025)",
  "assay": "soluble fraction after stress (log2 fold change); higher = more stays soluble; pooled small domains, quantitative proteomics",
  "settings": "stress: 50 degC",
  "method_in_brief": "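Pooled custom libraries of small protein domains were each held under stress at 50°C. The read-out, high-throughput quantitative proteomics, tracked how much of each protein stayed soluble. This is reported as a base-two log fold change used to indicate aggregation propensity. Higher values mean more protein remains in solution.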",
  "data": [
    {"sequence": "HMLISDENMLRDLVQAVLDENPKSVSDYKSGKTKAFGFLVGQTMKAVKGQADPMLVNKILTELLN", "values": [
      {"measurement": "soluble fraction (log2)", "result": -0.0365}
    ]},
    {"sequence": "HMLISYRVDALANEAGLSVDTIRYYQKLGILDPPKRTGRHSEYSPDHLERLIEIRRLADAGLTLSQISEI", "values": [
      {"measurement": "soluble fraction (log2)", "result": -2.46}
    ]},
    {"sequence": "HMLKAKKIPVSDLEKFKGIVAEDVVSKAKALILPRGSNLSWLSNVAKKNLIAKLKAEGIEYISVYSS", "values": [
      {"measurement": "soluble fraction (log2)", "result": 0.134}
    ]},
    {"sequence": "HMLKDGPIGAYADSVIRDIIEKMERFSKEHINVDMLKIHEKIMLIDEPIIRMALLDEFHRVSHDN", "values": [
      {"measurement": "soluble fraction (log2)", "result": -2.09}
    ]},
    {"sequence": "HMLKEKETRALANFTNKFFGLDISEDLKPIALSELSKFKKTHKISNLEEFINSFQYDFQNEKILSLLDIFL", "values": [
      {"measurement": "soluble fraction (log2)", "result": -0.994}
    ]},
    {"sequence": "HMLKFPIGTHVGKKKPSANLSLPNKHGVVIGHGERRNAKGAIMRFYIVETTHSSRPEEWAPGITYPL", "values": [
      {"measurement": "soluble fraction (log2)", "result": -2.5}
    ]},
    {"sequence": "HMLKHEEIQEYIKEQINSGTWKPKAKLPSLRDMSELFSTSIGTVLTAYSALEKKHIIYSIPRSGYYVLG", "values": [
      {"measurement": "soluble fraction (log2)", "result": -1.11}
    ]},
    {"sequence": "HMLKLEDIKKDAQVKGIVDGQIVRIVTVEPIGDHALTVYYKDHQGQFAERMLFRSDELNLELATA", "values": [
      {"measurement": "soluble fraction (log2)", "result": -0.00641}
    ]},
    {"sequence": "HMLKLSGEESQQLALRLREELARRRITRQGLADAAKISISTLEQVLAGRRTFTLATIVRLEEGLGIKLL", "values": [
      {"measurement": "soluble fraction (log2)", "result": -1.89}
    ]},
    {"sequence": "HMLKNKSTGNINETKAILELALNHSHFKVFDNRDMTVTFKNLATQFTTMQRILVQMFFPLPAGVELIIE", "values": [
      {"measurement": "soluble fraction (log2)", "result": "≥ 0.62"}
    ]},
    {"sequence": "HMLKNYATPEQRAQLDMLKDKGIIGENELMQLGKYPSQDKASEVLENHADAVKMLDSDEISNRAEAIRSHD", "values": [
      {"measurement": "soluble fraction (log2)", "result": 0.134}
    ]},
    {"sequence": "HMLKPQQTQRIYAMAARLGVLESGNKNDMLHTIVYRLTQKESIRSLNENEYKTVVSELAERLKL", "values": [
      {"measurement": "soluble fraction (log2)", "result": -0.97}
    ]},
    {"sequence": "HMLKQLGRQEGRQEGAVDALRTVLALQIEQRFGPLDPTVQALIVAADIDALQRALSRVAVVSDLGAVFPP", "values": [
      {"measurement": "soluble fraction (log2)", "result": -0.238}
    ]},
    {"sequence": "HMLKRLTVEFSAEMPKKMTSEQKEELASVLSEDPRPAYQNDENREYGLDYGEFSVKFKVKDGVLTVTSVTE", "values": [
      {"measurement": "soluble fraction (log2)", "result": -0.0668}
    ]},
    {"sequence": "HMLLNLSPIETQVLRLIQQDKKVTYESIGKELTIGQTKVYKVLGHLKELNVIERIGGRTYGHWHILL", "values": [
      {"measurement": "soluble fraction (log2)", "result": -1.03}
    ]},
    {"sequence": "HMLLNPFERLTERELEIADLYAKGYGNLEIANFLSIKQNTVSTYKKRIFEKLGIDNLVELIELIKNY", "values": [
      {"measurement": "soluble fraction (log2)", "result": 0.148}
    ]},
    {"sequence": "HMLLQTRQRHEALAALGYFKGDVAAAWGPASEEALRAAQAAFGITVDGKWGPQTEDAIQGALQV", "values": [
      {"measurement": "soluble fraction (log2)", "result": -0.213}
    ]},
    {"sequence": "HMLLREKLESVLPFISVSALAKTYFKRSPQWFYQRLNGSIVNGKPIRFNDAELKTLAGALTDIGKKISQAA", "values": [
      {"measurement": "soluble fraction (log2)", "result": -0.322}
    ]},
    {"sequence": "HMLLSEPSVLKFNDDNSYEIVSGFLTEYKDKIVKIERRYKKATVKITVAGEEKEIKVSFVEDTE", "values": [
      {"measurement": "soluble fraction (log2)", "result": -0.161}
    ]},
    {"sequence": "HMLLSTHVVVAKEDVQIGTRLQPAMLQVVDWPSASPLKNPLTSIEQATDRVVNMPLVKGEPISMSKLAAKG", "values": [
      {"measurement": "soluble fraction (log2)", "result": 0.00241}
    ]},
    {"sequence": "HMLLTASNYFKETKGINFSELPEALQKGHSFVIKSTENGTNWNAYSTSQNIQRVIDAYFSKLDEYLEKNQ", "values": [
      {"measurement": "soluble fraction (log2)", "result": -0.611}
    ]},
    {"sequence": "HMLLTHEEQIVKRGWQAPVGPFAILDSRAEAMHGDLEMLRGDREAAEQHFRRAWQIIGPIVEQ", "values": [
      {"measurement": "soluble fraction (log2)", "result": -0.0656}
    ]},
    {"sequence": "HMLMKILTDALEKMSPEELKELAEATGVKNTSSITPETMVGVFQAVFRVGGFKSYQLTLIIVNAVLKA", "values": [
      {"measurement": "soluble fraction (log2)", "result": -0.126}
    ]},
    {"sequence": "HMLMRKAEVGVESLNLRHGPGTQYKVLEILPGGKSLHYLAEPRRGWVRVTTEEGTTGWTFLKFLKPE", "values": [
      {"measurement": "soluble fraction (log2)", "result": -1.96}
    ]},
    {"sequence": "HMLNENNHGEWSIRMSNGLVVRLGRDELNRSLRRSIMAYAGLAPNYRSSIEYIDARYLGGVALKTF", "values": [
      {"measurement": "soluble fraction (log2)", "result": -0.091}
    ]},
    {"sequence": "HMLNKRQAEILAEVSRLKEITPSELYKLQPNVSSRTLRRDMDVLVNKGLVSQDGSTKSTKYTYL", "values": [
      {"measurement": "soluble fraction (log2)", "result": 0.23}
    ]},
    {"sequence": "HMLNMTLGDRIRSRREELRMSQEELATRLGYKSRSTIAKIESGENDLTQSKIVAFAEALSTTARWLLDY", "values": [
      {"measurement": "soluble fraction (log2)", "result": -1.04}
    ]},
    {"sequence": "HMLNVNDVIARNVRAARERKKLTLDGAAELTGVSRSMLAQIEKGEVNPTISVVWKIANGFKVSFTSLVEPQ", "values": [
      {"measurement": "soluble fraction (log2)", "result": -0.498}
    ]},
    {"sequence": "HMLPAGSDAILRYLSSGAVKGIGVATAARIVEKFGDETLRILEEEPGRLAEIKGITAAKAKAIGEAFAGQ", "values": [
      {"measurement": "soluble fraction (log2)", "result": -0.168}
    ]},
    {"sequence": "HMLPELIVTTKKGVTVTVTNGVITYSATSNGKATFTVPNYGKWTVSATINGTVISKVVDVTEAKQIPVLLG", "values": [
      {"measurement": "soluble fraction (log2)", "result": 0.196}
    ]},
    {"sequence": "HMLPERIQTIVALIGHGRAMDLVREFGGQEIKFPAQEGNDTWAALVEVIGEAATRKLAAVFGGGQAPPVYI", "values": [
      {"measurement": "soluble fraction (log2)", "result": -0.778}
    ]},
    {"sequence": "HMLPGVPVVAGKTQSAATRILKAAGYAVSVVREEAFDGVTGTVLRTSPEAGSPLAPGSRVTLVVLQVV", "values": [
      {"measurement": "soluble fraction (log2)", "result": -0.27}
    ]},
    {"sequence": "HMLPGWMETKFTANVSENTKNRTLEEHVLKMLNNKESAAEFIIFLHEKMMSVSGQVFQLDSR", "values": [
      {"measurement": "soluble fraction (log2)", "result": 0.149}
    ]},
    {"sequence": "HMLPIGSSREQVISSLNKMHQDYKEEGNFIYAGYFKQGLPLVPSPRISIALQFNETAHLEKIDATLNYV", "values": [
      {"measurement": "soluble fraction (log2)", "result": -0.305}
    ]},
    {"sequence": "HMLPKLAEEYAIMEIRGKGENLTAKLINKGGDSFMVRNGTVLQTGHRIDEITQTYVRAEINGMKDYLYFA", "values": [
      {"measurement": "soluble fraction (log2)", "result": 0.417}
    ]},
    {"sequence": "HMLPLLAFDEKLNRLGYGGGFYDRTLASLAHKGNTITAIGIAYESQKMDKVPTGYFDRPLDGVLTPSGLIM", "values": [
      {"measurement": "soluble fraction (log2)", "result": 0.0274}
    ]},
    {"sequence": "HMLPNLWVMGPGDHLWRVAEVAMTKHLGRPVANHEIDGYWRRLVALNRESLIDPDNPDLVFAGQVIELPPF", "values": [
      {"measurement": "soluble fraction (log2)", "result": -2.32}
    ]}
  ]
}
